Patent publication US20240360224A1 (ORIONIS BIOSCIENCES, published 2024)
Substitutions are numbered along the chain they refer to. Numbers in names are those of the source. One block for each binder: values may come before it.

What was measured:
human Clec9A [1] = target: T1, human Clec9A (human, UniProt Q6UXN8 1-241); assay: flow cytometry on HEK293-T cells transfected with human Clec9A; His-tagged VHH at 2 µg/ml, anti-His FITC antibody; single concentration
T1 construct: Expressed on transfected CHO-K1, HEK293-T and HL116 cells, or native on human dendritic cells; also called hClec9A; C-type lectin domain family 9 member A
T1 sequence (Q6UXN8 whole entry, the tested form may be a part): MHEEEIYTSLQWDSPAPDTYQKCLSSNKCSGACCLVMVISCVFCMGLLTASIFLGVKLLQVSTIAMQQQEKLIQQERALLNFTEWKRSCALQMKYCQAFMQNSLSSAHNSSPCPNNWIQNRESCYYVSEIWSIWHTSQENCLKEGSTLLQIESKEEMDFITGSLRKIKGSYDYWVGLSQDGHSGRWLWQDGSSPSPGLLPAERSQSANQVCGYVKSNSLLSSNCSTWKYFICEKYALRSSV
Protocol: The binding characteristics of various VHHs (as described in Example 1) were tested by flow cytometry. HEK293-T cells were transfected with a human Clec9A expression plasmid and stained with the His-tagged VHHs at 2 μg/ml, followed by staining with an anti-His Fitc conjugated antibody. Binding was measured by detecting cellular fluorescence via flow cytometry.

human Clec9A [2] = target: T1, human Clec9A; assay: flow cytometry, crude periplasmic extracts on CHO-K1 cells stably transfected with human Clec9A
Protocol: A VHH library was constructed from an immunized of a llama. Three consecutive rounds of panning of a VHH library were performed in solution using stably transfected CHO-K cells expressing human Clec9A. The enrichment for antigen-specific phages was assessed after each round of panning by comparing the number of phagemid particles eluted from transfected cells (output) with the number of phagemid particles used for panning (input). The phage output increased about 10-fold in the 2nd round and about 10³-fold in the 3rd round, as compared to the output from the 1st round. The input phage was always about 10¹¹ and the output from first round was about 10⁸ phage particles. 285 randomly selected colonies from the 1st, 2nd and 3rd panning rounds (95 from each round) were sequenced and then grouped based on CDR3 sequences. Using crude periplasmic extracts including VHHs, 95 unique sequences were analyzed by flow cytometry for specificity to human Clec9A using CHO-K1 cells stably transfected with human Clec9A. The parental non-transfected CHO-K1 cells served as negative control cell. An irrelevant VHH was used as negative nanobody control. […] Table B below provides a description of 66 clones representing the 66 different anti-human Clec9A VHH genes. E. coli TG1 harboring recombinant phagemid pMECS containing anti-human Clec9A VHH sequences was generated and stored at […]. […]

[3] = target: T2, biotinylated human CLEC9A (human, UniProt Q6UXN8 57-241, limits assumed, biotinylated (site not stated)); assay: BLI (Octet), biotinylated human CLEC9A on streptavidin sensor, VHH at 50, 100 and 200 nM, global analysis
T2 construct: Captured on a streptavidin sensor for BLI
T2 sequence (Q6UXN8 57-241 limits assumed): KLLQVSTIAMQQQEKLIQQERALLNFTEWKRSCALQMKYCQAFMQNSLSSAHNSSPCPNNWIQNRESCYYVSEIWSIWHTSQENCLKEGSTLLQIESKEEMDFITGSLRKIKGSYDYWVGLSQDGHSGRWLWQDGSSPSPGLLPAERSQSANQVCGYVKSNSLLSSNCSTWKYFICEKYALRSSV
Protocol: Affinities of the AFN's for Clec9A were determined using the bio-layer interferometry technology on an Octet system (ForteBio).

B6: 2LEC 24 (VHH)
VHH: QVQLQESGGGLVQAGGSLRLSCAASGRTFSTYAMGWFRQAPGKERGLVAAISWSGGSTYYADSVKGRFTIFRDNAENTVYLQMNSLKPEDTAVYYCAAEAEGSGREGNFYERSWYQGQGTQVTVSS
notes: Entry includes C-terminal AAA-HA-His tag (pMECS); only five His are printed in the text
binding result (human Clec9A [2]): binds

B8: 3LEC_89 (wild type) (VHH)
VHH: QVQLQESGGGLVQPGGSLRLSCAASGRIFSVNAMGWYRQAPGKQRELVAAITNQGAPTYADSVKGRFTISRDNAGNTVYLQMNSLRPEDTAVYYCKAFTRGDDYWGQGTQVTVSS
notes: pHEN6C periplasmic expression with C-terminal his6 tag, no HA tag
Kd [3]: 1.74 nM
koff [3]: 0.000725 s⁻¹
kon [3]: 416000 M⁻¹ s⁻¹

B9: 3LEC_89_opt2 (E1D-Q5V-Q108L-A74S) (VHH)
VHH: B8 VHH with Q1D, Q5V, A74S, Q110L
notes: The entry already carries the named substitutions; pHEN6C, C-terminal his6 tag
Kd [3]: 2.41 nM
koff [3]: 0.000817 s⁻¹
kon [3]: 338000 M⁻¹ s⁻¹

B10: 3LEC_89_opt4 (E1D-Q5V-Q108L-A74S-G75K) (VHH)
VHH: B8 VHH with Q1D, Q5V, A74S, G75K, Q110L
notes: as for B9
Kd [3]: 2.35 nM
koff [3]: 0.000982 s⁻¹
kon [3]: 417000 M⁻¹ s⁻¹

B11: 3LEC_89_opt3 (E1D-Q5V-Q108L-G75K) (VHH)
VHH: B8 VHH with Q1D, Q5V, G75K, Q110L
notes: as for B9
Kd [3]: 2.56 nM
koff [3]: 0.00112 s⁻¹
kon [3]: 438000 M⁻¹ s⁻¹

B12: 3LEC_89_opt1 (E1D-Q5V-Q108L) (VHH)
VHH: B8 VHH with Q1D, Q5V, Q110L
notes: as for B9
Kd [3]: 2.2 nM
koff [3]: 0.000861 s⁻¹
kon [3]: 391000 M⁻¹ s⁻¹

B15: 3LEC 9 (VHH)
VHH: QVQLQESGGGLVQAGGSLRVSCAASGRTLSNYAVGWWRQAPGKQREFVAAINWSSGGISYSNSAKGRFALSRDNAKNTVYLQMDSLKPEDTAVYYCAAASSVLSGTVDYWGQGTQVTVSS
notes: Entry includes C-terminal AAA-HA-His6 (pMECS)
binding result (human Clec9A [1]): binds

B18: R1CHCL50 (wild type) (VHH)
VHH: QVQLVESGGGLVHPGGSLRLSCAASGSFSSINVMGWYRQAPGKERELVARITNLGLPNYADSVTGRFTISRDNAKNTVYLQMNSLKPEDTAVYYCYLVALKAEYWGQGTQVTVSS
notes: pHEN6C periplasmic expression with C-terminal his6 tag
Kd [3]: 1.72 nM
koff [3]: 0.000705 s⁻¹
kon [3]: 410000 M⁻¹ s⁻¹

B19: R1CHCL50_opt4 (E1D-A74S-K83R-Q108L-H13Q-T64K) (VHH)
VHH: B18 VHH with Q1D, H13Q, T64K, A74S, K86R, Q110L
notes: as for B9
Kd [3]: 2.7 nM
koff [3]: 0.00118 s⁻¹
kon [3]: 438000 M⁻¹ s⁻¹

B20: R1CHCL50_opt1 (E1D-A74S-K83R-Q108L) (VHH)
VHH: B18 VHH with Q1D, A74S, K86R, Q110L
notes: as for B9
Kd [3]: 1.29 nM
koff [3]: 0.000635 s⁻¹
kon [3]: 492000 M⁻¹ s⁻¹

B21: R1CHCL50_opt2 (E1D-A74S-K83R-Q108L-H13Q) (VHH)
VHH: B18 VHH with Q1D, H13Q, A74S, K86R, Q110L
notes: as for B9
Kd [3]: 1.15 nM
koff [3]: 0.000723 s⁻¹
kon [3]: 630000 M⁻¹ s⁻¹

B22: R1CHCL50_opt3 (E1D-A74S-K83R-Q108L-T64K) (VHH)
VHH: B18 VHH with Q1D, T64K, A74S, K86R, Q110L
notes: as for B9
Kd [3]: 1.79 nM
koff [3]: 0.000998 s⁻¹
kon [3]: 559000 M⁻¹ s⁻¹

The next lines start with the values.

binding result (human Clec9A [1]): binds
B1: 3LEC 62 (VHH)
VHH: QVQLQESGGGLVQPGGSLRLSCAASGRIGSINSMGWYRQAPGKQREMVAAITNGGATVYADSVKGRFTISRDNAGNTVDLHMNSLRPEDSAVYYCTIWAADYQQYWGQGTQVTVSS
notes: as for B15

binding result (human Clec9A [1]): binds
B2: 3LEC 23 (VHH)
VHH: QVQLQESGGGLVQTGGSLRLSCAASGSIFNINSMGWYRQAPGKQRELVAAITVGGRLAYADSAKGRFTISKESARNTVHLQMSSLKPEDTAVYYCTIWAADYQQYWGQGTQVTVSS
notes: as for B15

binding result (human Clec9A [1]): binds
B3: 1LEC 51 (VHH)
VHH: QVQLQESGGGLVQAGGSLRLSCAASVNIDTLNSMAWYRQAPGKQRELVAGITGSGQITYANSVRGRFTVSRDNAKSTVYLQMNTLQPEDTAVYYCAAYDRSSTPYWGQGTQVTVSS
notes: as for B15

binding result (human Clec9A [1]): binds
B4: 3LEC 6 (VHH)
VHH: B3 VHH with A23V, D29G, T30S, A35V, A40S, N73I, V78A, Q86K, S102A, P104A
notes: as for B15

binding result (human Clec9A [1]): binds
B5: 1LEC 61 (VHH)
VHH: QVQLQESGGGLVQPGGSLRLSCAASGGISSINSMGWYRQAPGNQRELVAAITNGGRTVYGDSVKGRFTISRDSAGNTVHLQMDSLRPEDTGVYYCKAFTRGDDYWGQGTQVTVSS
notes: as for B15

binding result (human Clec9A [1]): binds
B7: 3LEC 94 (VHH)
VHH: B6 VHH with L11S, T31S, G35A, K43M, G46E, F71S
notes: as for B15

binding result (human Clec9A [1]): binds
B13: 3LEC 15 (VHH)
VHH: QVQLQESGGGLVQAGGSLRLSCAASGSVFSINAMGWYRQAPEKQRELVAAITTQGRTTYEDSVKGRFTISRDGAQNTVYLQMDSLKPEDTAVYYCKAWTAKDDYWGKGTQVTVSS
notes: as for B15

binding result (human Clec9A [1]): binds
B14: 3LEC 22 (VHH)
VHH: QVQLQESGGGRVQPGGSLRLSCAAIGSIFEINSIGWYRQAPGKQRELVAAITSGGITNYANSVQGRSTISRDNVNNTVYLQMNSLKPEDSAVYYCKGFTGWGKEDYWGQGTQVTVSS
notes: as for B15

binding result (human Clec9A [1]): binds
B16: 3LEC 82 (VHH)
VHH: B15 VHH with V20L, G35A, W37F, F47L, N52W, S54A, S61A, A69V, V107A
notes: as for B15

binding result (human Clec9A [1]): binds
B17: 3LEC 61 (VHH)
VHH: B15 VHH with G35A, W37F, S63A, V102I
notes: as for B15
